Experimental data from the domain aggregation screens of Martell et al. (2025).

Assay: soluble fraction after stress (log2 fold change); higher = more stays soluble; pooled small domains, quantitative proteomics
Conditions: stress: pH 4
Procedure, shortened: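 After pH 4 stress, pooled custom libraries of small protein domains were quantified with high-throughput quantitative proteomics. Aggregation propensity is taken from the fold change in each domain's soluble amount following the acid stress. The scale is log2, where higher values mean more stayed soluble.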

Row | Sequence | soluble fraction (log2)
1 | HMESRRVTLLLPYDKAGIADTLRREAAVLSLEYGEDGVTVEAVVKPELWGLVREYVQNDNPK | -0.319
2 | HMESVTETFLTNLINRYIADKAGYIISYPSEYRIEVLYHGGQVLDYENLRKSINTYIPAHIGYKLVTI | -0.158
3 | HMESYDSEIKEVLDLAGKGRWEEAQTKADALREMAPNNSLVERLHGWVLQAAHQRREQALENDIRE | 0.101
4 | HMESYTEEMLEKMSVSKLRTIARELQVDNMTREQIRFGKKTELIQNILEFTGREIENMQLYDK | -0.357
5 | HMESYWVVLRPMAAGTQIGANDLGYRSVALGAAAKNYLAASTNPIGSITRRRLVAGELLQGSSLTDDARA | 0.185
6 | HMETADREILLREIREIINERVDYNKDITDDEMKELVMNTVFERSRQQYMSIQDKQEIIQAIFNSMR | -1.02
7 | HMETAESLLRRLIMLEDPAMQNAMYVLAVMLERGKQLVERAAKPHESGGILRVYEHKKSGDTFVVLDPR | -1.05
8 | HMETDGGDLTPRERDVLSLIGRGLRNAEAASALGLSEHTIAGHIKSVYSKLGISTRAEAALLASRLGL | -0.261
9 | HMETGGLAQEAERELALLQEQIAHHEALYRKGTPEISDGAFDELFDRYQELADSLGVPADERIDRA | -0.836
10 | HMETIHEMVNRLSSEGFIKNEDGIWYLRDRRGDGTKWLKNPFFESTGEKDAFALIDHLKVNDELLSKLRK | -0.433
11 | HMETINERVNSIIEREGHTVATFAKKIGVPWTTIKNIVSGRNAPSYDIMVKIINAVDWVDANYLVMG | -1.16
12 | HMETKIKFQIQTLDELNIRKVADWDAKAITTVKKGQILDVVDTVAAKNGSTPMYRLESGLYITASPKYVKK | 0.22
13 | HMETKPTELMLDVHKLRIGMFVYLDLGWMDHPFPLNRFKISTNAQIEQIKGLRLKQVKVMTALSDPASLL | -0.637
14 | HMETKVIVPKVTGMNSKSAINYLSARGLKYKAVPADSGKSFHVVDQYPKSGTKVSPHSTVYLYS | 0.386
15 | HMETLKEVPNLKGQQQEVAKQLLINAGLGVGKINIIEDSTIADGEVVTQSILPNTKVKKDTYVGFTVNKAP | 0.22
16 | HMETLKLRDSGKEVQSLQELLQRQGLSAPMNGIFDEATKSSVIAFQKANGLDADGIVGYKSWETLFTAG | -0.349
17 | HMETMSGTVKWFNTQKGYGFITGDDGAEYFAHQTQIKMDGFRTLDAGDIVEFDVRSEEKGLAAVNIVP | -0.707
18 | HMETPDLTQLNPILDEYRGQKGAVIPVLQKAQKIYGFLPPEVLRRIAAGMRVPLSKIYGVATFYSQFY | -0.0265
19 | HMETQAGELQDAIRDAIAALPPRTREVFLMSRERNLRYGEIAEALGISVKAVEANMSRALRQLREKLSPFL | 0.108
20 | HMETVMYLRQIKRPQGIYLAIQESYYDSSKKQSRTRTIESIGYLDNLRKEYEDPIAFFSQKAAAMTSEKKK | -0.177
21 | HMETVQTGTVKVSNSLNVRSGAGTNYSVLGSLSNGAKVEIVGTSGSWYKIKYGSGYGYVSKDYVTVS | -0.28
22 | HMETVSFNPDIAVIPDYRHVVILGETTKTIANKYDIPVDILKAANPGLGNNVTKGDRLRVPDKTKLQ | -0.0151
23 | HMETYHIQMKGDPSKGIVGFSQLDMVIDKIKRLETEKGIAPYELEVLDGDTMEKYSGEEFLTMHE | -1.21
24 | HMETYSGVERAAILVMYLERTLAKALLDHMNDEEVRRVGMAMASIDRVEGPDIERIVGDFVRELYEVS | -0.857
25 | HMETYTVPEVLGLTPEQAAQLPEVKDIFTLDVKEEGDFSDKPVGTIVRQSPTEGEHRKGDNLVIEVWLSV | -0.269

Row | Sequence | soluble fraction (log2)
26 | HMEVADAAQRKILQALQVQPLTVEQLSQELRTDTGDLLVSLSMMEITGLIRREAGNTFLAVFAPK | -0.598
27 | HMEVEIPSREALLGLVQKHLKPVSFDEFVSHFKLGDERQQVGIKRRLRAMERDGQLVYTKANSYGLPDRM | -0.197
28 | HMEVGVSGTVFNTDSLNVRKGPGTNFDTVTSLKRGSVVEVFEQSAVDGTVWGRIANGWVNMQYVSL | -0.0681
29 | HMEVKEVDYSAFMTMTEENSISKVEIEENQILFKKKGDDQTTYKTARMDDPALITRLHDQGVDFTGQ | 0.0244
30 | HMEVKRANRKERFLEALPYQFSRQDYLNIADKNKIPHKTAEGYITKFVDAGLIHREAHNNYTNPTKA | 0.045
31 | HMEVLPLHQVKLKYAEADTILIALKSAQSMLSPRGQLLADNRSQQIFVYDDEAHTATLIEAIKHLDQPL | -0.32
32 | HMEVLTEPKVQSIDTHGEKSTFVIESPNPLQPDEIAKLVGADGISVRVDRTWLKSHRDSTWTYSILTVS | 0.163
33 | HMEVPFRNAAIFKTRSGDYAIRASYDGVDLGIKPIEKSTARTYFQLTDVKDKESFLNMTARNQYESEIAGI | 0.153
34 | HMEVPNLIGMTDKDLQRTYFQLPIEAAGDGSVVIKQLPEPGEKVKEGSVIRVLLG | 0.00722
35 | HMEVPQKTLEILEPWRGRKGFLIPVLQAVQHEFGYVPKEAIETVSREMKMPTAEIYGVVTFYAQFH | -0.513
36 | HMEVSEGEIREKVESVFSSNPRQAYNYKQISKKLNINDKSERQIVWDVLRKLAGSGKIQEVEHGRFRARAE | -0.0385
37 | HMEVSKETFPAYVAVDSLPVYKSASTSSSKVTTIDFGREVTVVETRGGWAKIQYGSYKGFAEIEGMSKN | -0.0269
38 | HMEVVELTDDEKMILATLHDGPVEIGHIKQVVGLSGKKWDAATKSLRQKGLINVVLENEQKLMVK | -0.0453
39 | HMEWGEADFVRLDEALATLRTLSPRQAEVVDLRFFSELSLEETAATLGLSLATVKRDWSVARLYLQRALS | -0.815
40 | HMEWTVEKQAAATLNAWMRKNSEMTSEKKVAVAAGIGPATVNRIMKAEVSTTIGVLSSLARAFGHEAYEMI | 0.114
41 | HMEYDEVVVVKQIIPKGKNTMVAHLKHLKEHGETGFLKQAVGYLKLHASEIPFSVDAVISEVH | -0.0529
42 | HMEYDYKVIDFFKDYYSYLNYQEIEPNILDKQLTTLTEEESAKIAGIMKLDYEDFTRGIEIVTGS | -1.41
43 | HMEYLIENYGSVINQARMKKGMTQEQLSSKTGVSQAYIRSIESQNMKPTDAVARKIEFELGIKLFE | 0.147
44 | HMEYSKSIKRLREDKNLTVEELAKRLSLDVEEIQKAEDGEDVDQKTLEAIARYFGVQYDSLVEGTAKSK | -0.258
45 | HMEYTTEELDSLLKLYFQTHESINRNEFEQLTSYTRTTASRRLKTLVQAGKLQNIGLYRFPVYKPTEGNF | -0.037
46 | HMEYYWHQLKGLEVVNTRGESLGRVRRLLETGANDVLVLEGEQERLIPYVPDTIKQVDLAKGLIEVAWDRD | -1.23
47 | HMFAADIGVGIVDADSLRVRSEPSTGAPIVTSLLRGTQVTVQEKLDGWYRITYNDVSGFVSAEYLIFTADE | -0.297
48 | HMFAGEWKQDASGWWYQNDDGSFTRNGWQNISGKQYYFNENGYMLHDTTTPDGKQVGSDGSLV | -0.389
49 | HMFAKVEGITGDILDKLQQQRGFLALSDKSSPEAIYDTFGVSKKVFKQAIGTLFKQQKISIEAEGIRLV | -0.0102
50 | HMFASSADGVEGLKTNPIFASTKEKSDAGKLLYTRYLAIGIFRMLELAKATDPKALEALVEAGG | 0.147
